# System: Escherichia coli TOP10
# Assay: shrunken log2 fold change of peptide-encoding DNA abundance (4.5 h post-induction vs induction); higher = less antimicrobial activity (less host growth inhibition)
# Settings: time post-induction: 4.5 h; library: site-saturation at positions 5, 18, 19, 20
# 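Note: peptides expressed intracellularly from a pBAD plasmid library in pooled LB shake-flask culture, induced with 0.3% L-arabinose, DNA abundance read by NGS, three biological replicates, DESeq2 with apeglm shrinkage.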
row,Sequence,shrunken log2 fold change
1,RRIRMRPPRLPRPRPRPCCPPRP,-0.0946
2,RRIRVRPPRLPRPRPRPVWSPRP,0.754
3,RRIRSRPPRLPRPRPRPSNQPRP,-0.242
4,RRIRSRPPRLPRPRPRPGLAPRP,0.444
5,RRIRDRPPRLPRPRPRPRMTPRP,0.212
6,RRIRHRPPRLPRPRPRPCVKPRP,-0.121
7,RRIRFRPPRLPRPRPRPQTVPRP,-0.211
8,RRIRCRPPRLPRPRPRPNHIPRP,-0.994
9,RRIRRRPPRLPRPRPRPVEMPRP,0.483
10,RRIRKRPPRLPRPRPRPCKCPRP,0.0183
11,RRIRARPPRLPRPRPRPPPFPRP,0.762
12,RRIRVRPPRLPRPRPRPCNQPRP,0.0169
13,RRIRRRPPRLPRPRPRPYVQPRP,0.0531
14,RRIRQRPPRLPRPRPRPRGPPRP,0.0418
15,RRIRLRPPRLPRPRPRPFFEPRP,0.058
16,RRIRFRPPRLPRPRPRPCVQPRP,-0.182
17,RRIRVRPPRLPRPRPRPDWGPRP,0.184
18,RRIRPRPPRLPRPRPRPDAHPRP,0.209
19,RRIRLRPPRLPRPRPRPYFMPRP,-0.855
20,RRIRKRPPRLPRPRPRPLTVPRP,0.344
21,RRIRRRPPRLPRPRPRPWFSPRP,-0.0902
22,RRIRRRPPRLPRPRPRPFYGPRP,-0.0114
23,RRIRRRPPRLPRPRPRPKTFPRP,-0.0358
24,RRIRVRPPRLPRPRPRPLYHPRP,-0.677
25,RRIRHRPPRLPRPRPRPKREPRP,-0.0483

row,Sequence,shrunken log2 fold change
1,RRIRPRPPRLPRPRPRPACSPRP,0.184
2,RRIRHRPPRLPRPRPRPLLIPRP,-0.516
3,RRIRQRPPRLPRPRPRPPLVPRP,0.931
4,RRIRVRPPRLPRPRPRPHWNPRP,-0.343
5,RRIRNRPPRLPRPRPRPPHGPRP,-0.0913
6,RRIRLRPPRLPRPRPRPKNEPRP,-0.198
7,RRIRWRPPRLPRPRPRPTPYPRP,0.284
8,RRIRNRPPRLPRPRPRPGMRPRP,0.504
9,RRIRDRPPRLPRPRPRPLTEPRP,0.236
10,RRIRKRPPRLPRPRPRPYNNPRP,-0.286
11,RRIRMRPPRLPRPRPRPGGNPRP,0.671
12,RRIRYRPPRLPRPRPRPYCAPRP,-0.899
13,RRIRCRPPRLPRPRPRPQNCPRP,0.137
14,RRIRDRPPRLPRPRPRPYIEPRP,-0.0649
15,RRIRVRPPRLPRPRPRPEAFPRP,0.143
16,RRIRVRPPRLPRPRPRPDAEPRP,0.431
17,RRIRPRPPRLPRPRPRPASCPRP,0.186
18,RRIRTRPPRLPRPRPRPKQTPRP,0.204
19,RRIRCRPPRLPRPRPRPQFIPRP,-0.866
20,RRIRERPPRLPRPRPRPPVWPRP,0.634
21,RRIRERPPRLPRPRPRPWYTPRP,3.82
22,RRIRMRPPRLPRPRPRPYRTPRP,0.0313
23,RRIRKRPPRLPRPRPRPGSYPRP,-0.00588
24,RRIRQRPPRLPRPRPRPGHHPRP,0.245
25,RRIRCRPPRLPRPRPRPDCHPRP,-0.0697

row,Sequence,shrunken log2 fold change
1,RRIRPRPPRLPRPRPRPHNLPRP,-0.131
2,RRIRKRPPRLPRPRPRPGPWPRP,0.63
3,RRIRIRPPRLPRPRPRPCCVPRP,-0.726
4,RRIRQRPPRLPRPRPRPWQAPRP,0.124
5,RRIRMRPPRLPRPRPRPRPPPRP,1.55
6,RRIRCRPPRLPRPRPRPNLSPRP,-0.431
7,RRIRSRPPRLPRPRPRPRREPRP,0.416
8,RRIRKRPPRLPRPRPRPICQPRP,-0.0166
9,RRIRCRPPRLPRPRPRPKLGPRP,0.0989
10,RRIRQRPPRLPRPRPRPFMQPRP,-0.259
11,RRIRGRPPRLPRPRPRPFAGPRP,0.00108
12,RRIRARPPRLPRPRPRPECTPRP,1.05
13,RRIRTRPPRLPRPRPRPCLSPRP,0.079
14,RRIRARPPRLPRPRPRPQQMPRP,0.12
15,RRIRSRPPRLPRPRPRPSMFPRP,-0.18
16,RRIRGRPPRLPRPRPRPEQEPRP,0.0952
17,RRIRIRPPRLPRPRPRPTEWPRP,0.133
18,RRIRMRPPRLPRPRPRPITIPRP,-0.315
19,RRIRKRPPRLPRPRPRPTCWPRP,0.499
20,RRIRKRPPRLPRPRPRPSMAPRP,0.0554
21,RRIRRRPPRLPRPRPRPFWYPRP,-0.192
22,RRIRTRPPRLPRPRPRPTEYPRP,-0.245
23,RRIRVRPPRLPRPRPRPCSNPRP,-0.411
24,RRIRLRPPRLPRPRPRPWKCPRP,-0.391
25,RRIRNRPPRLPRPRPRPKPVPRP,0.24

# Reference: the supplement of paper PMC9112550, “Optimization of the antimicrobial peptide Bac7 by deep mutational scanning” (BMC Biology, 2022)
